Results on 21 sequences are retold here after the supplement of paper PMC9170038.

For the data set, the system named is K4 kissing-loop RNA reporter. Briefly: apparent KD of K4 kissing-loop reporter; higher = weaker reporter binding. Particulars: Eterna round: R107. As for the experimental part: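 RNA-MaP round R107: designed RNA switches with theophylline, tryptophan, arginine or FMN aptamers are transcribed on-chip within common flanks. They are titrated with a labelled K4 kissing-loop RNA reporter in RNA-MaP buffer (100 mM Tris pH 7.5, 80 mM KCl, 4 mM MgCl2), without ligand or with the indicated ligand. Median apparent KD per design.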

Setting [1] is: input ligand: theophylline 20 uM.
Where [2] appears, read: input ligand: tryptophan 2.4 mM.
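Further: bound reporter read as fluorescence of individual clusters on recovered sequencing chips by microscopy, with normalized cluster intensities fitted with a binding model.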

Consider “UGUCAUUGGUCGGCCGCCACUUCAUAAAGAGUGAUGUUCUUAAAGACGGAUCGAAAGAUCUGUCGAAGGACCGGGACCGAUGACU [FiskerMod 8 - Jieux - Same State - Tryptophan B]”, for which the “apparent KD of K4 kissing-loop reporter” value was 1330 nM (input ligand: FMN 200 uM); 1080 nM (input ligand: arginine 13.2 mM); 1500 nM (input ligand: none); 927 nM under setting [1]; 196 nM under setting [2].

Regarding “UGUCAUUGGUCGGCCGCCACUUCAUGUAGAGUGAUGUUCUGUAAGACGGAUCGAAAGAUCUGUCGAAGGACCGGGACCGAUGACU [FiskerMod 13 - Jieux - Same State - Tryptophan B]”, the “apparent KD of K4 kissing-loop reporter” value is 1090 nM (input ligand: FMN 200 uM); 303 nM (input ligand: arginine 13.2 mM); 855 nM (input ligand: none); 868 nM under setting [1]; 326 nM under setting [2].

For the sequence “UGUCAUUGGUCGGCCGCCACUUCGGUCAAAGACCAUAAAGAGUGAUGUUCUUAAGACGAAAGUCGAAGGACCGGGACCGAUGACU [TrypBS 11 #SwitchBubble #K4Middle]”, the “apparent KD of K4 kissing-loop reporter” value (input ligand: FMN 200 uM) was 1110 nM; the “apparent KD of K4 kissing-loop reporter” value (input ligand: arginine 13.2 mM) amounted to 744 nM; the “apparent KD of K4 kissing-loop reporter” value (input ligand: none) came out at 1200 nM; the “apparent KD of K4 kissing-loop reporter” value under setting [1] came out at 782 nM; the “apparent KD of K4 kissing-loop reporter” value under setting [2] turned out to be 273 nM.

For the sequence “UGUCAUUGGUCGGCCGCCACUUUAUAUGGAGUGAUGUUUUGUAGAUUGUGUUGAAAGGUGUGGUGAAGGACCGGGACCGAUGACU [FiskerMod 25 - Jieux - Same State - Tryptophan B]”, the “apparent KD of K4 kissing-loop reporter” value (input ligand: FMN 200 uM) worked out at 803 nM; the “apparent KD of K4 kissing-loop reporter” value (input ligand: arginine 13.2 mM) stood at 617 nM; the “apparent KD of K4 kissing-loop reporter” value (input ligand: none) came to 1010 nM; the “apparent KD of K4 kissing-loop reporter” value under setting [1] is 1010 nM; the “apparent KD of K4 kissing-loop reporter” value under setting [2] came out at 967 nM.

Turning to “UGUCAUUGGUCUGAUACCAGAAGAUAUUCUGGAGUGAUGUUCCAAGUACGACAAAGUCGCUUCCCUUGGCAGCAGACCGAUGACU [TheoBS 20 #SwitchBubble 13 #StaticStem]”, the “apparent KD of K4 kissing-loop reporter” value (input ligand: FMN 200 uM) was found to be 471 nM; the “apparent KD of K4 kissing-loop reporter” value (input ligand: arginine 13.2 mM) was 195 nM; the “apparent KD of K4 kissing-loop reporter” value (input ligand: none) was 617 nM; the “apparent KD of K4 kissing-loop reporter” value under setting [1] came out at 501 nM; the “apparent KD of K4 kissing-loop reporter” value under setting [2] is 690 nM.

On to “UGUCAUUGGUCUGAUACCAGUUGAUGACGAAUACGUCAACUGGAGUGAUGUUCCUAAAACAACCCUUGGCAGCAGACCGAUGACU [TheoBS 1 #SwitchBubble #StaticStem]”, for which the “apparent KD of K4 kissing-loop reporter” value was determined as 788 nM (input ligand: FMN 200 uM); 511 nM (input ligand: arginine 13.2 mM); 658 nM (input ligand: none); 709 nM under setting [1]; 564 nM under setting [2].

In the case of “UGUCGAGUGAUGUUCGAUUUGGUGCAUGCAGAGGAUAUAGGGUGGGCUAGAAGGCUGAAAAGUGCUUCGAGUGAUGUUCGAAGUU [Exclusion FMN A GF10]”, the “apparent KD of K4 kissing-loop reporter” value reads like this: (input ligand: FMN 200 uM) 117 nM; (input ligand: arginine 13.2 mM) 113 nM; (input ligand: none) 100 nM; under setting [1], 100 nM; under setting [2], 97.3 nM.

For “UGUGUGUAGGGAAGGAGCGCCGAGAGAAGAAGAAAAGAGUGAUGUUCAAGACAAUAAAGACGGCAGGUAGGUCGCCCUGUGUGUG [Default title]”, the “apparent KD of K4 kissing-loop reporter” value reads like this: (input ligand: FMN 200 uM) 756 nM; (input ligand: arginine 13.2 mM) 706 nM; (input ligand: none) 516 nM; under setting [1], 517 nM; under setting [2], 267 nM.

Consider “UGUGUUUACCUGACUCAGUGAUGUUGAGAAGGAGCGUGAGAAAUCACAGGUAGGUCGCUCAACCUAAAUUCAGGUGAGCACUAAA”, for which the “apparent KD of K4 kissing-loop reporter” value (input ligand: FMN 200 uM) turned out to be 268 nM; the “apparent KD of K4 kissing-loop reporter” value (input ligand: arginine 13.2 mM) was found to be 197 nM; the “apparent KD of K4 kissing-loop reporter” value (input ligand: none) stood at 325 nM; the “apparent KD of K4 kissing-loop reporter” value under setting [1] came to 277 nM; the “apparent KD of K4 kissing-loop reporter” value under setting [2] is 253 nM.

As to “UGUGUUUACCUGACUCAGUGAUGUUGAGAAGGAGCGUGCAAACGCACAGGUAGGUCGCUCAACCUAAAUUCAGGUGAGCACUAAA”, the “apparent KD of K4 kissing-loop reporter” value (input ligand: FMN 200 uM) was 568 nM; the “apparent KD of K4 kissing-loop reporter” value (input ligand: arginine 13.2 mM) was 380 nM; the “apparent KD of K4 kissing-loop reporter” value (input ligand: none) is 453 nM; the “apparent KD of K4 kissing-loop reporter” value under setting [1] is 423 nM; the “apparent KD of K4 kissing-loop reporter” value under setting [2] came to 406 nM.

Consider “UGUGUUUACCUGACUCAGUGAUGUUGAGAAGGAGCGUGCGAAGGCACAGGUAGGUCGCUCAACCUAAAUUCAGGUGAGCACUAAA”, for which the “apparent KD of K4 kissing-loop reporter” value turned out to be 249 nM (input ligand: FMN 200 uM); 168 nM (input ligand: arginine 13.2 mM); 344 nM (input ligand: none); 281 nM under setting [1]; 250 nM under setting [2].

In the case of “UGUUUUUUUUUGAUGUUUGUUGUAAAAUGGCAGGAUAUCGUAGAGGCGAGAAGGGCUUUUAUGCGUUAUGAGUGAUGUUUGUAGG [vevvmullin]”, the “apparent KD of K4 kissing-loop reporter” value reads like this: (input ligand: FMN 200 uM) 418 nM; (input ligand: arginine 13.2 mM) 252 nM; (input ligand: none) 381 nM; under setting [1], 269 nM; under setting [2], 284 nM.

For “UUAAUAAUUCAAGGAUAUGUUUUCUAUUUCGAGUGAUGUUCGGAAUUAAUAAAUUUAAAAGAUUAUACAGAAGGUGAUAGAUAGU [Cynwulf-mod#3]”, the “apparent KD of K4 kissing-loop reporter” value stood at 89.5 nM (input ligand: FMN 200 uM); 82.5 nM (input ligand: arginine 13.2 mM); 90.9 nM (input ligand: none); 88.1 nM under setting [1]; 75.9 nM under setting [2].

With “UUAAUAAUUCAAGGAUAUGUUUUCUAUUUCGAGUGAUGUUCGGAAUUAAUAAAUUUAAAAGAUUAUACAGAAGGUGAUGGAUAGU [Cynwulf-mod#4]”, the “apparent KD of K4 kissing-loop reporter” value was found to be 114 nM (input ligand: FMN 200 uM); 117 nM (input ligand: arginine 13.2 mM); 109 nM (input ligand: none); 129 nM under setting [1]; 90.3 nM under setting [2].

For “UUACGGUCCUCGGCCGCCACUCAUAGUGAUGUUAUGCUGCCUGAAGGCACCGGACCUGGAUAUCAGAGGACCGGGAGGCCAUUCG [theeternabot_exclusion_KL_Trp_B_6]”, the “apparent KD of K4 kissing-loop reporter” value by setting is: (input ligand: FMN 200 uM) 793 nM; (input ligand: arginine 13.2 mM) 590 nM; (input ligand: none) 810 nM; under setting [1], 560 nM; under setting [2], 544 nM.

With “UUAGAGGCCCAGUGAUGUUGGGUGGUUGGGCGAGGACCGGUACGGCCGCCACUCGCCGCGGAACUAUCGGAAUCUCGCUCGGCUA [Aninxearqu]”, the “apparent KD of K4 kissing-loop reporter” value is, setting by setting: (input ligand: FMN 200 uM) 277 nM; (input ligand: arginine 13.2 mM) 233 nM; (input ligand: none) 239 nM; under setting [1], 309 nM; under setting [2], 256 nM.

In the case of “UUAGCCCUAUAGGGCAAGACCUAUACUGAUACCAGAGGGUAUACCCUCCCUUGGCAGCGGAUCGAGUGAUGUUCGUAAGGUCAUU [AK4.4 SS Theophylline A]”, the “apparent KD of K4 kissing-loop reporter” value (input ligand: FMN 200 uM) came to 741 nM; the “apparent KD of K4 kissing-loop reporter” value (input ligand: arginine 13.2 mM) amounted to 730 nM; the “apparent KD of K4 kissing-loop reporter” value (input ligand: none) came out at 844 nM; the “apparent KD of K4 kissing-loop reporter” value under setting [1] was found to be 776 nM; the “apparent KD of K4 kissing-loop reporter” value under setting [2] came out at 572 nM.

Consider “UUAGGAGUGGAAGGAUAUCCUGGUGUGGGUGAUGUUAGUGAUGUUGAAAGUGCAGUGAUGUUGCGCGGAGAAGGUCCGGUGUUGA [BDazzled - #7 - Exc. FMN B]”, for which the “apparent KD of K4 kissing-loop reporter” value is, setting by setting: (input ligand: FMN 200 uM) 180 nM; (input ligand: arginine 13.2 mM) 153 nM; (input ligand: none) 173 nM; under setting [1], 256 nM; under setting [2], 157 nM.

Consider “UUAGGAGUGGGAGGAUAUCCUGGUGUGGGUGAUGUUAGUGAUGUUGAAAGUGUAGUGAUGUUGUGCGGAGAAGGUCCAGUGUUGA [BDazzled - #10 - Exc. FMN B]”, for which the “apparent KD of K4 kissing-loop reporter” value is, setting by setting: (input ligand: FMN 200 uM) 504 nM; (input ligand: arginine 13.2 mM) 295 nM; (input ligand: none) 459 nM; under setting [1], 646 nM; under setting [2], 292 nM.

As to “UUAGUUGAAAGUGAUACCAGACAAGUUAAGAGAAGAAAUUAAGUUGGAGUGAUGUUCCAAGUCCCUUGGCAGCACAUUGUAAUUU [Same State Theophylline B GF12]”, the “apparent KD of K4 kissing-loop reporter” value runs as follows: (input ligand: FMN 200 uM) 101 nM; (input ligand: arginine 13.2 mM) 211 nM; (input ligand: none) 129 nM; under setting [1], 256 nM; under setting [2], 126 nM.

Regarding “UUAUACAACUGAAGGAGCGCCAGUGAUGUUGGCGUGACGACUGCUUCCUUCGCCGAGUCCUGGCAGGUAGGUCGCAGUUGCUGAA [Oratgere]”, the “apparent KD of K4 kissing-loop reporter” value runs as follows: (input ligand: FMN 200 uM) 82.6 nM; (input ligand: arginine 13.2 mM) 97.2 nM; (input ligand: none) 113 nM; under setting [1], 99 nM; under setting [2], 94.8 nM.
